The values below are quoted from earlier work in PMC7614842.

For the series, the target named is C3d C3d (Mus musculus) (UniProt P01027).
Chain of UniProt P01027 (P01027 1002-1303): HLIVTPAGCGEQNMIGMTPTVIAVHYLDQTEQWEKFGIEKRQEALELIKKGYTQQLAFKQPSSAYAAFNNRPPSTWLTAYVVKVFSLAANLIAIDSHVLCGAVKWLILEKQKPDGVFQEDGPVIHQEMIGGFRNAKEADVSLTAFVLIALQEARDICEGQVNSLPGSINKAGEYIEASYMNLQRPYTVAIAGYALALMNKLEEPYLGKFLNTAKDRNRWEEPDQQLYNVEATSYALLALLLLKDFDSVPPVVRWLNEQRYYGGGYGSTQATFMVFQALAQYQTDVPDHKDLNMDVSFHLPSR

A word on the Kd: it is the equilibrium constant for the complex coming apart. As to CR2 (from UniProt P19070), the Kd was 0.14 µM.
